Reference: patent CN115819578A (WUHAN ABCLONAL INC, dated 2023)

T1: 重组人IL-5蛋白 (recombinant Human IL-5, R&D Systems 205-IL-005) (human, UniProt P05113 20-134)
T1 construct: Bought protein; also called 重组human IL-5; His-tag重组human IL-5
T1 sequence (looked up): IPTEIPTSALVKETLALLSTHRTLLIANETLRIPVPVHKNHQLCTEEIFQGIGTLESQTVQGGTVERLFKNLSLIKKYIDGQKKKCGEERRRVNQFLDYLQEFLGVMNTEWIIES

B1: 兔单克隆抗体24A10 (anti-human IL-5 rabbit monoclonal antibody 24A10) (antibody, V domains shown)
VH: QSLEESGGGLVQPEGSLTLTCTASGFSFSSSYYMCWVRQAPGKGLEWIGCIAAGSSGISYYASWAKGRFTISKTSSTTVTLQMTGLTAADTATYLCSRSCDIYSDGGTSFDLWGPGTLVTVSS
VL: DVVMTQTPASVSEPVGGTVTIKCQASQSISSYLAWYQQKPGQPPKLLIYEASKLASGVPSRFKGSGSGTEFTLTISDLECADAATYYCESNYDITSSYFGGGTEVVVKG
notes: in the BLI assays it was unlabelled; also called 24A10抗体; 人IL-5兔单克隆抗体24A10
B2: 兔单克隆抗体16D2 (anti-human IL-5 rabbit monoclonal antibody 16D2) (antibody, V domains shown)
VH: QEQLEESGGDLVKPEGSLTLTCTASGFSFSINYWICWVRQAPGKGLEWIACIYGGSSGSAYYATWAKGRFTISKTSSTTVTLQMTSLTAADTATYFCARDDEGGGIFYNLWGPGTLVTVSS
VL: AYDMTQTPSSASEPVGGTVTIKCQASEDIYNLLAWYQQKPGQPPKLLIYSASTLASGVPSRFKGSGSGTEYTLTISDLECADAATYYCEQHYTPSNVHNTFGGGTEVVVKG
notes: also called 16D2抗体; 抗人IL-5兔单克隆抗体16D2

Molecular target: T1, 重组人IL-5蛋白 (recombinant Human IL-5, R&D …)
Test: BLI (Probe Life Gator), antibody 2 μg/mL on proA probe, recombinant human IL-5 at 150 nM and 70 nM

Row | Kd | Binder
1 | 0.306 nM | B1
2 | 4.03 nM | B2
